Data on one molecule can be found in patent US20040006022A1 (Harvard, published 2004).

Experiment [1] addresses T1, recombinant water-soluble 'empty' HLA-DR1 (DRB1*0101) (human).
T1 chain 1: not shown
T1 chain 2: not shown

Experiment [2] concerns the target T2, recombinant water-soluble 'empty' HLA-DR4 (DRB1*0401) (human).
T2 chain 1: not shown
T2 chain 2: not shown

In experiment [3] the target is T3, HLA-DR1 on L fibroblasts transfected with HLA-DR1 (L57.23) (human).
T3 chain 1: not shown
T3 chain 2: not shown
The experiment can be described thus: cell-based or functional assay.

Experiment [4] has as its target T4, HLA-DR4 on L fibroblasts transfected with HLA-DR4 (human).
T4 chain 1: not shown
T4 chain 2: not shown
As to the kind of experiment: cell-based or functional assay.

Experiment [5] deals with T1, recombinant water-soluble 'empty' …. The experiment can be described thus: competitive binding ELISA on recombinant HLA-DR1; competitor biotinylated YEAK. For orientation: An ELISA detects its analyte on a solid surface through an enzyme-linked reagent.
The target in experiment [6] is T2, recombinant water-soluble 'empty' …. The experiment can be described thus: competitive binding ELISA on recombinant HLA-DR4; competitor biotinylated YEAK.

Like-named read-outs stand apart in the source and are kept apart here.

B1: HA 306-318 bracketed by alanines at N- and C-terminals, … (peptide)
peptide: APKYVKQNTLKLATA
modifications: not checked
In the case of B1, the affinity determined by competition in experiment [1] was 13 µM; in experiment [2] it was 26 µM; in experiment [5], 3.3 µM; in experiment [6], 8.2 µM. In experiment [3], the inhibition of the response of 3.19 T cells (IL-2 secretion) was greater than 98%. In experiment [3], this molecule came in with an inhibition of the response of 19.3 T cells (IL-2 secretion) greater than 95%. Besides, the inhibition of the DR4 3838 T cell clone (IL-2 secretion) in experiment [4] was less than 60%. Moreover, the inhibition of the DR4 D3 T cell clone (IL-2 secretion) in experiment [4] is less than 60%.
